Values quoted from earlier work, collected in article PMC3472557.

Columns and labels:
ASPP2 (Homo sapiens) [1] = biological target: ASPP2 (Homo sapiens) (UniProt Q13625); assay: BIAcore SPR
ASPP2 (Homo sapiens) [2] = biological target: ASPP2 (Homo sapiens) (UniProt Q13625); assay: solid-phase ELISA

ASPP2 (Homo sapiens), sequence (Q13625 whole entry): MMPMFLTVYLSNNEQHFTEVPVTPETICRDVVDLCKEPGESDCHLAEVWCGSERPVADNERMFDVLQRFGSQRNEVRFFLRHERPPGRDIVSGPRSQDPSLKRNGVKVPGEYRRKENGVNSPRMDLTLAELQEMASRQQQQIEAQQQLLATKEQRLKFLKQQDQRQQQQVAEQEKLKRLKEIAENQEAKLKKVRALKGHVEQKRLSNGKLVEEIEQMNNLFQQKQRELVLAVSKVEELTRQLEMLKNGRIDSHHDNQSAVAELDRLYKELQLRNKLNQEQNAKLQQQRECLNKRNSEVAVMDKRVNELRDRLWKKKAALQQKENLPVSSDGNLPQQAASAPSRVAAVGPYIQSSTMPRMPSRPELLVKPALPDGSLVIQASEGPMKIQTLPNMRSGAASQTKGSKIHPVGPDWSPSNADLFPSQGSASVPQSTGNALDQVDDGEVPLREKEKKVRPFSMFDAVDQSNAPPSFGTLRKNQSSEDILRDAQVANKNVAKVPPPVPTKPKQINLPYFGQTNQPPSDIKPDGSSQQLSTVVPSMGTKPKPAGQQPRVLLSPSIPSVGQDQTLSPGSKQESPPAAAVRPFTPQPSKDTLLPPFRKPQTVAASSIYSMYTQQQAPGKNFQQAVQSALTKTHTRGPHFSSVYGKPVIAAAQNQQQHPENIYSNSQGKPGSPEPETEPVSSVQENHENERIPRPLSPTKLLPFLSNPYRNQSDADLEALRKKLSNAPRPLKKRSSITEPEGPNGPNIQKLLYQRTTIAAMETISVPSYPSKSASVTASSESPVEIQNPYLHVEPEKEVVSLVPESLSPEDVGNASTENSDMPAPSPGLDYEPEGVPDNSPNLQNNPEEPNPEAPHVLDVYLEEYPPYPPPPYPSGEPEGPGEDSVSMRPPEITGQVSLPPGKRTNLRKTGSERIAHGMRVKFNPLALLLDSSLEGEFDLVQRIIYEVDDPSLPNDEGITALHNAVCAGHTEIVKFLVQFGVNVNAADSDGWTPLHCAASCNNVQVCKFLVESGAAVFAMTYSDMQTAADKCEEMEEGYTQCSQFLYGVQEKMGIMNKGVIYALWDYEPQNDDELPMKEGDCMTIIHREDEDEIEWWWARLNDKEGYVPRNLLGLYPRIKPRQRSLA

Kd (ASPP2 (Homo sapiens) [1]): 30 nM | Kd (ASPP2 (Homo sapiens) [2]): 23 nM
Substance: p53 (from UniProt P04637)
